# Target: the molecule itself
# Experiment: negative-stain electron microscopy
protein,measurement,value
"desmin (natural protein, chicken, UniProt P02542 1-464, looked up) MSQSYSSSQRVSSYRRTFGGGTSPVFPRASFGSRGSGSSVTSRVYQVSRTSAVPTLSTFRTTRVTPLRTYQSAYQGAGELLDFSLADAMNQEFLQTRTNEKVELQELNDRFANYIEKVRFLEQQNALMVAEVNRLRGKEPTRVAEMYEEELRELRRQVDALTGQRARVEVERDNLLDDLQKLKQRLQEEIQLKEEAENNLAAFRADVDAATLARIDLERRIESLQEEIAFLKKVHEEEIRELQAQLQEQHIQVEMDISKPDLTAALRDIRAQYESIAAKNIAEAEEWYKSKVSDLTQAANKNNDALRQAKQEMLEYRHQIQSYTCEIDALKGTNDSLMRQMREMEERFAGEAGGYQDTIARLEEEIRHLKDEMARHLREYQDLLNVKMALDVEIATYRKLLEGEENRISIPMHQTFASALNFRETSPDQRGSEVHTKKTVMIKTIETRDGEVVSEATQQQHEVL",binding result,binds

# Source: PMC5070455 (Biophysics, 2012)
